Here are results for three sequences from the Immune Epitope Database (IEDB).

For one experiment, the target named is HLA-A*31:01. As to the kind of experiment: IEDB peptide-MHC binding, purified MHC/direct/fluorescence; filed as Kd, often an IC50 or EC50 that approximates it; ≥ and ≤ were set here for values at or beyond the usual limits of such assays.
A further experiment addresses HLA-A*69:01. The description is as above.
Experiment [1] concerns the target HLA-A*26:01. The description is as above. Particulars: source organism: Rickettsia sibirica.
For experiment [2], the target named is HLA-B*40:01. The experiment is described as above.
Another experiment concerns the target HLA-B*58:01. Described as above.
Another experiment concerns the target HLA-A*02:01. Described as above.
The target of experiment [3] is HLA-B*15:01. The description is as above.
The target in another experiment is HLA-A*01:01. Described as above.
The next experiment concerns the target HLA-B*08:01. The experiment is described as above. The conditions noted are these: source organism: Rickettsia sibirica.
The target in experiment [4] is HLA-B*27:05. The experiment is described as above. The conditions noted are these: source organism: Rickettsia sibirica.
The target in experiment [5] is HLA-B*07:02. The experiment is described as above. The conditions noted are these: source organism: Rickettsia sibirica.
For another experiment, the target named is HLA-A*30:01. The experiment is described as above. Particulars: source organism: Rickettsia sibirica.
A further experiment has as its target HLA-A*03:01. Described as above. Particulars: source organism: Rickettsia sibirica.
For a further experiment, the target named is HLA-B*44:02. The experiment is described as above. Particulars: source organism: Rickettsia sibirica.
The target of a further experiment is HLA-B*15:42. Put plainly: IEDB peptide-MHC binding, purified MHC/competitive/fluorescence; filed as Kd, often an IC50 or EC50 that approximates it; ≥ and ≤ were set here for values at or beyond the usual limits of such assays. The conditions noted are these: source organism: Yersinia pseudotuberculosis IP 31758.
Experiment [6] has as its target HLA-B*40:01. The description is as above. Particulars: source organism: Yersinia pseudotuberculosis IP 31758.
For another experiment, the target named is HLA-B*45:06. The description is as above. Particulars: source organism: Yersinia pseudotuberculosis IP 31758.
Experiment [7] concerns the target HLA-B*15:01. Described as above. The conditions noted are these: source organism: Yersinia pseudotuberculosis IP 31758.
A further experiment addresses HLA-A*68:23. The experiment is described as above. Particulars: source organism: Yersinia pseudotuberculosis IP 31758.
The target in the next experiment is HLA-B*83:01. The experiment is described as above. Particulars: source organism: Yersinia pseudotuberculosis IP 31758.
Another experiment has as its target HLA-C*06:02. As to the kind of experiment: IEDB peptide-MHC binding, purified MHC/direct/fluorescence; filed as Kd, often an IC50 or EC50 that approximates it; ≥ and ≤ were set here for values at or beyond the usual limits of such assays. The conditions noted are these: source organism: Yersinia pseudotuberculosis IP 31758.
In experiment [8] the target is HLA-A*26:01. As to the kind of experiment: IEDB peptide-MHC binding, purified MHC/competitive/fluorescence; filed as Kd, often an IC50 or EC50 that approximates it; ≥ and ≤ were set here for values at or beyond the usual limits of such assays. Particulars: source organism: Ehrlichia chaffeensis.
For the next experiment, the target named is HLA-A*02:06. The description is as above. The conditions noted are these: source organism: Ehrlichia chaffeensis.
For the next experiment, the target named is HLA-A*26:03. The description is as above. The conditions noted are these: source organism: Ehrlichia chaffeensis.
Another experiment concerns the target HLA-B*35:01. Described as above. Particulars: source organism: Ehrlichia chaffeensis.
The target in experiment [9] is HLA-B*27:05. The description is as above. Particulars: source organism: Ehrlichia chaffeensis.
Experiment [10] has as its target HLA-B*07:02. The experiment is described as above. The conditions noted are these: source organism: Ehrlichia chaffeensis.
Another experiment deals with HLA-B*18:01. Put plainly: IEDB peptide-MHC binding, purified MHC/direct/fluorescence; filed as Kd, often an IC50 or EC50 that approximates it; ≥ and ≤ were set here for values at or beyond the usual limits of such assays. The conditions noted are these: source organism: Brucella abortus 2308.
Another experiment deals with HLA-B*57:01. The experiment is described as above. The conditions noted are these: source organism: Brucella abortus 2308.
A further experiment has as its target HLA-B*46:01. The experiment is described as above. The conditions noted are these: source organism: Brucella abortus 2308.
The next experiment has as its target HLA-A*11:01. Described as above. Particulars: source organism: Brucella abortus 2308.
A further experiment addresses HLA-B*15:17. The description is as above. The conditions noted are these: source organism: Brucella abortus 2308.
The target in another experiment is HLA-B*48:01. The experiment is described as above. The conditions noted are these: source organism: Brucella abortus 2308.
A further experiment deals with HLA-A*68:02. The description is as above. Particulars: source organism: Brucella abortus 2308.
Where [11] appears, read: source organism: Rickettsia sibirica.
The mark [12] stands for this setting: source organism: Brucella abortus 2308.

AIKPITDQF: the Kd (in general, the equilibrium constant for the complex coming apart) is at least 20 µM in the experiment with HLA-A*31:01 (setting [11]); at least 20 µM with HLA-A*69:01 (setting [11]); at least 20 µM with HLA-A*26:01 [1]; at least 20 µM in the experiment with HLA-B*40:01 [2] (setting [11]); at least 10 µM in the experiment with HLA-B*58:01 (setting [11]); at least 20 µM with HLA-A*02:01 (setting [11]). The Kd in the experiment with HLA-B*15:01 [3] (setting [11]) is at least 20 µM; with HLA-A*01:01 (setting [11]), at least 20 µM; with HLA-B*08:01, at least 20 µM; in the experiment with HLA-B*27:05 [4] it was at least 20 µM; with HLA-B*07:02 [5], 5.83 µM; with HLA-A*30:01, 8.09 µM. The Kd in the experiment with HLA-A*03:01 and with HLA-B*44:02 was at least 20 µM in each case.

Take RQMRASAPL: the Kd with HLA-B*15:42 is at least 5 µM; in the experiment with HLA-B*40:01 [6], 0.0181 µM; with HLA-B*45:06, at least 5 µM; in the experiment with HLA-B*15:01 [7] it was 0.145 µM; with HLA-A*68:23, 0.0024 µM; with HLA-B*83:01, at least 5 µM. This sequence came in with a Kd in the experiment with HLA-C*06:02 of at least 20 µM.

Turning to RVYKNYDPR, the Kd in the experiment with HLA-A*26:01 [8] was at least 20 µM; with HLA-A*02:06, at least 20 µM; in the experiment with HLA-A*26:03, at least 20 µM; with HLA-B*35:01, 1.67 µM; in the experiment with HLA-B*27:05 [9] it was 1.06 µM; in the experiment with HLA-B*07:02 [10], at least 20 µM. In addition, the Kd with HLA-A*31:01 (setting [12]) is 0.0513 µM; in the experiment with HLA-A*69:01 (setting [12]) it was at least 20 µM; with HLA-B*18:01 it was at least 20 µM; with HLA-B*57:01 it was at least 20 µM; with HLA-B*40:01 [2] (setting [12]), at least 20 µM; with HLA-B*58:01 (setting [12]), at least 20 µM. In addition, the Kd with HLA-A*02:01 (setting [12]) was at least 20 µM; with HLA-B*46:01 it was at least 20 µM; with HLA-B*15:01 [3] (setting [12]), at least 20 µM; with HLA-A*11:01, 0.101 µM; in the experiment with HLA-B*15:17, at least 20 µM; with HLA-B*48:01, at least 20 µM. Further, the Kd with HLA-A*68:02 and with HLA-A*01:01 (setting [12]) was at least 20 µM throughout.
